Source: US20240269180A1

What was measured:
[1] = biological target: PD-1 on tumor infiltrating lymphocytes (human) (UniProt Q15116); test: flow cytometry of tumor digest H3046 stained with anti-PD-1 clone EH12.2H7; percent of CD3+ cells stained PD-1+
[2] = biological target: PD-1 on tumor infiltrating lymphocytes (human) (UniProt Q15116); test: flow cytometry of tumor digest M1156 stained with anti-PD-1 clone EH12.2H7; percent of CD3+ cells stained PD-1+
[3] = biological target: PD-1 on tumor infiltrating lymphocytes (human) (UniProt Q15116); test: flow cytometry of tumor digest OV8074 stained with anti-PD-1 clone EH12.2H7; percent of CD3+ cells stained PD-1+

Chain of UniProt Q15116 (Q15116 25-288): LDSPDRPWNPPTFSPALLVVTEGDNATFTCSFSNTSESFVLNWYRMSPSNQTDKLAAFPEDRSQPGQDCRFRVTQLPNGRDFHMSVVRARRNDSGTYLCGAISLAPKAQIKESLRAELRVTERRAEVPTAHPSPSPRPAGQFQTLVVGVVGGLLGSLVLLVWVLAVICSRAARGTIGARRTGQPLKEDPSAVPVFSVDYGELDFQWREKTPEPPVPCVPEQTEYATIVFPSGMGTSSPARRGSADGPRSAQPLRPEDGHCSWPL

Pre-sort % PD-1+ (of CD3+) [1]: 13% | Pre-sort % PD-1+ (of CD3+) [2]: 93% | Pre-sort % PD-1+ (of CD3+) [3]: 70%
B1: anti-PD-1 antibody clone EH12.2H7 (antibody, from another filing, V domains shown)
VH: QVQLQQSGAELAKPGASVQMSCKASGYSFTSSWIHWVKQRPGQGLEWIGYIYPSTGFTEYNQKFKDKATLTADKSSSTAYMQLSSLTSEDSAVYYCARWRDSSGYHAMDYWGQGTSVTVSS
VL: DIVLTQSPASLTVSLGQRATISCRASQSVSTSGYSYMHWYQQKPGQPPKLLIKFGSNLESGIPARFSGSGSGTDFTLNIHPVEEEDTATYYCQHSWEIPYTFGGGTKLEIK
